The source of these data is paper PMC5779224 (2017).

What is called Kd is the concentration at which binding is half-saturated.

Sequences and labels used below:
B1: AnkB_AI-b (aa 865–896) [human] / AnkB 28–847 (MBD + partial AI-c) [human] (parent complex)
chain 1: EDLKELGDDSLPSSQFLDGMNYLRYSLEGGRS
chain 2: KSDSNASFLRAARAGNLDKVVEYLKGGIDINTCNQNGLNALHLAAKEGHVGLVQELLGRGSSVDSATKKGNTALHIASLAGQAEVVKVLVKEGANINAQSQNGFTPLYMAAQENHIDVVKYLLENGANQSTATEDGFTPLAVALQQGHNQAVAILLENDTKGKVRLPALHIAARKDDTKSAALLLQNDHNADVQSKMMVNRTTESGFTPLHIAAHYGNVNVATLLLNRGAAVDFTARNGITPLHVASKRGNTNMVKLLLDRGGQIDAKTRDGLTPLHCAARSGHDQVVELLLERGAPLLARTKNGLSPLHMAAQGDHVECVKHLLQHKAPVDDVTLDYLTALHVAAHCGHYRVTKLLLDKRANPNARALNGFTPLHIACKKNRIKVMELLVKYGASIQAITESGLTPIHVAAFMGHLNIVLLLLQNGASPDVTNIRGETALHMAARAGQVEVVRCLLRNGALVDARAREEQTPLHIASRLGKTEIVQLLLQHMAHPDAATTNGYTPLHISAREGQVDVASVLLEAGAAHSLATKKGFTPLHVAAKYGSLDVAKLLLQRRAAADSAGKNGLTPLHVAAHYDNQKVALLLLEKGASPHATAKNGYTPLHIAAKKNQMQIASTLLNYGAETNIVTKQGVTPLHLASQEGHTDMVTLLLDKGANIHMSTKSGLTSLHLAAQEDKVNVADILTKHGADQDAHTKLGYTPLIVACHYGNVKMVNFLLKQGANVNAKTKNGYTPLHQAAQQGHTHIINVLLQHGAKPNATTANGNTALAIAKRLGYISVVDTLKVVTEEVTTTTTTITEKHKLNVPETMTEVLDVSD
B2: AnkG linker ΔAI-c (aa 861–920) [rat] / AnkG 38–855 (AnkG MBD-AI-c protein; MBD + partial AI-c) [rat] (parent complex)
chain 1: KASAPEKLSDGEYISDGEEGEDAITGDTDKYLGPQDLKELGDDSLPAEGYVGFSLGARSA
chain 2: KSDANASYLRAARAGHLEKALDYIKNGVDVNICNQNGLNALHLASKEGHVEVVSELLQREANVDAATKKGNTALHIASLAGQAEVVKVLVTNGANVNAQSQNGFTPLYMAAQENHLEVVRFLLDNGASQSLATEDGFTPLAVALQQGHDQVVSLLLENDTKGKVRLPALHIAARKDDTKAAALLLQNDTNADIESKMVVNRATESGFTPLHIAAHYGNINVATLLLNRAAAVDFTARNDITPLHVASKRGNANMVKLLLDRGAKIDAKTRDGLTPLHCGARSGHEQVVEMLLDRAAPILSKTKNGLSPLHMATQGDHLNCVQLLLQHNVPVDDVTNDYLTALHVAAHCGHYKVAKVLLDKKANPNAKALNGFTPLHIACKKNRIRVMELLLKHGASIQAVTESGLTPIHVAAFMGHVNIVSQLMHHGASPNTTNVRGETALHMAARSGQAEVVRYLVQDGAQVEAKAKDDQTPLHISARLGKADIVQQLLQQGASPNAATTSGYTPLHLSAREGHEDVAAFLLDHGASLSITTKKGFTPLHVAAKYGKLEVASLLLQKSASPDAAGKSGLTPLHVAAHYDNQKVALLLLDQGASPHAAAKNGYTPLHIAAKKNQMDIATSLLEYGADANAVTRQGIASVHLAAQEGHVDMVSLLLSRNANVNLSNKSGLTPLHLAAQEDRVNVAEVLVNQGAHVDAQTKMGYTPLHVGCHYGNIKIVNFLLQHSAKVNAKTKNGYTPLHQAAQQGHTHIINVLLQNNASPNELTVNGNTALAIARRLGYISVVDTLKVVTEEIMTTTTITEKHKMNVPETMNEVLDMS
B3: AnkB_AI-c (aa 828–852) [human] / AnkB_MBD (AnkB ANK repeats only, aa 28–827) [human] (parent complex)
chain 1: TEKHKLNVPETMTEVLDVSDEEGDD
chain 2: KSDSNASFLRAARAGNLDKVVEYLKGGIDINTCNQNGLNALHLAAKEGHVGLVQELLGRGSSVDSATKKGNTALHIASLAGQAEVVKVLVKEGANINAQSQNGFTPLYMAAQENHIDVVKYLLENGANQSTATEDGFTPLAVALQQGHNQAVAILLENDTKGKVRLPALHIAARKDDTKSAALLLQNDHNADVQSKMMVNRTTESGFTPLHIAAHYGNVNVATLLLNRGAAVDFTARNGITPLHVASKRGNTNMVKLLLDRGGQIDAKTRDGLTPLHCAARSGHDQVVELLLERGAPLLARTKNGLSPLHMAAQGDHVECVKHLLQHKAPVDDVTLDYLTALHVAAHCGHYRVTKLLLDKRANPNARALNGFTPLHIACKKNRIKVMELLVKYGASIQAITESGLTPIHVAAFMGHLNIVLLLLQNGASPDVTNIRGETALHMAARAGQVEVVRCLLRNGALVDARAREEQTPLHIASRLGKTEIVQLLLQHMAHPDAATTNGYTPLHISAREGQVDVASVLLEAGAAHSLATKKGFTPLHVAAKYGSLDVAKLLLQRRAAADSAGKNGLTPLHVAAHYDNQKVALLLLEKGASPHATAKNGYTPLHIAAKKNQMQIASTLLNYGAETNIVTKQGVTPLHLASQEGHTDMVTLLLDKGANIHMSTKSGLTSLHLAAQEDKVNVADILTKHGADQDAHTKLGYTPLIVACHYGNVKMVNFLLKQGANVNAKTKNGYTPLHQAAQQGHTHIINVLLQHGAKPNATTANGNTALAIAKRLGYISVVDTLKVVTEEVTTTTTTI
B4: AnkB_AI-a peptide (aa 1623–1635) [human] / AnkB_MBD (AnkB ANK repeats only, aa 28–827) [human] (parent complex)
chain 1: HPPIVSEEDISVG
chain 2: B3 chain 2

The variants in the first test derive from B1. As to the kind of experiment: ITC; parent: 2.7e+03 nM. In general terms: Isothermal titration calorimetry measures the heat released or taken up as one component is titrated into another.
Consider chain 2 I240Q, chain 2 L273Q, for which the Kd worked out at 8.5 µM.

Variants of B1 are the subject of a further test. Kind of test: ITC; parent: 2.7e+03 nM. This is another data set of the same source.
As to chain 1 Y22A, the Kd turned out to be 16 µM.

The variants in a further test derive from B2. As to the kind of experiment: ITC; parent: 1.6e+03 nM.
As for chain 2 F104Q, chain 2 F137Q, the Kd was 2.6 µM.

In the case of chain 2 I240Q, chain 2 L273Q, the Kd is 3.9 µM.

The variants in another test derive from B3. As to the kind of experiment: ITC; parent: 360 nM.
For the variant chain 2 N568A, the Kd was determined as 2.4 µM.

In the next test the parent is B3. As to the kind of experiment: ITC; parent: 360 nM. The source holds these as a separate data set.
For the variant chain 1 N7K, the Kd is 2.7 µM.

Regarding chain 1 L16Q, the Kd stood at 3.9 µM.

Turning to chain 1 M12Q, the Kd came out at 4.4 µM.

Variants of B4 are the subject of another test. As to the kind of experiment: fluorescence polarisation; parent: 7.3e+03 nM. On the technique in general: Fluorescence polarisation rises when a labelled molecule tumbles more slowly, as on binding a larger partner.
Turning to chain 2 R10E, chain 2 R13E, the Kd came to 43.8 µM.
